Laboratory results as given in patent publication US9266964.
Blank lines part the entries; values can stand above or below the binder they belong to.

Target: human plasma kallikrein (human) (UniProt P03952)
Assay: ELISA; signal on coated biotinylated human plasma kallikrein divided by signal on streptavidin; Fab

Chain of human plasma kallikrein (human) (P03952 20-390, chain 1 of 2): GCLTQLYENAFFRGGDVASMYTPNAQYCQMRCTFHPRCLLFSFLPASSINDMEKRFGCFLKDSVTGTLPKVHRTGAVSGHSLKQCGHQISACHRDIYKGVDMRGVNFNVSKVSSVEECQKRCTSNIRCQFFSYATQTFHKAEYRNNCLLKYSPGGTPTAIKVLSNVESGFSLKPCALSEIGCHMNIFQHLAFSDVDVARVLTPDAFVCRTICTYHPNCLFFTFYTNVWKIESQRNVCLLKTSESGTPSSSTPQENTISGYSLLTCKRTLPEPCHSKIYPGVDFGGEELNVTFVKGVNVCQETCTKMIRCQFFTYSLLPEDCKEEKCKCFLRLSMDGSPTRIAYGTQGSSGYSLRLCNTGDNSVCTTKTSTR
Chain of human plasma kallikrein (human) (P03952 391-638, chain 2 of 2): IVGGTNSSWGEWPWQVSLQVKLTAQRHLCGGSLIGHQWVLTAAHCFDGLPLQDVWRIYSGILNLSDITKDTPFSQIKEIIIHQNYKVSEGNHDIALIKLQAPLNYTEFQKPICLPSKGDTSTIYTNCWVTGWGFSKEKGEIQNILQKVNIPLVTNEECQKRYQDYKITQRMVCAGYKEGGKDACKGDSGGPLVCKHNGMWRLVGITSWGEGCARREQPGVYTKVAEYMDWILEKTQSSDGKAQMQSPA

Human pKal ELISA (T/B) (T/B (target signal / background signal)): 2
B1: M29-E02 (Fab, V domains shown)
VH: EVQLLESGGGLVQPGGSLRLSCAASGFTFSRYPMMWVRQAPGKGLEWVSVIYPSGGDTFYADSVKGRFTISRDNSKNTLYLQMNSLRAEDTAVYYCASGDDYLWEAAVYWGQGTLVTVSS
VL: QSVLTQPPSVSEAPRQRVTISCSGSSSNIGNNAVSWYQQLPGKAPKLLIYYDDLLPSGVSDRFSGSKSGTSASLAISGLRSEDEADYYCAAWDDSLNGFVFGTGTKVTVL

Human pKal ELISA (T/B) (T/B (target signal / background signal)): 1.5
B2: M28-F01 (Fab, V domains shown)
VH: EVQLLESGGGLVQPGGSLRLSCAASGFTFSVYLMHWVRQAPGKGLEWVSGISPSGGYTQYADSVKGRFTISRDNSKNTLYLQMNSLRAEDTAVYYCARPGGLDAFDIWGQGTMVTVSS
VL: DIQMTQSPSSLSASVGDRVTITCRASQSINTYLNWYQQKPGKAPKVLIHAASTLESGVPSRFSGSGSGTDFTLTISSLQPEDFATYYCQQSYSTPPTFGQGTKVEIK
